Six substances from publication PMC3713477 can be followed below.

The subject of the data set is 3E10 lupus anti-DNA autoantibody (mouse). The data set is described as follows: EMSA. Particulars: 0-10 uM 3E10, 30 min at 4 C, buffer, salt and pH not given (ref 28). On the technique in general: In EMSA bound probe runs differently from free probe, usually more slowly.
On to “duplex DNA with splayed single-stranded ends”, for which the Kd (as a rule, the concentration at which binding is half-saturated) is 200 nM. Consider single-stranded DNA, for which the Kd stood at 200 nM. Turning to “duplex DNA with internal bubble (heterology)”, the Kd worked out at 400 nM. Regarding duplex DNA with 5' single-stranded tail, the Kd amounted to 200 nM. In the case of blunt-end duplex DNA, the Kd amounted to 400 nM. Turning to duplex DNA with 3' single-stranded tail, the Kd was determined as 200 nM.
